Source: the nanobody polyreactivity screen of Harvey et al. (2022)

Assay: yeast display, Sf9 membrane polyspecificity reagent, FACS + sequencing; frameworks hold sequencing errors
In short: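 In a synthetic yeast display library (Saccharomyces cerevisiae BJ5465), nanobody expression was induced with galactose for 36–48 hours. FACS gates were set low and high (top ~1%) using anti-HA fluorescence for expression and streptavidin fluorescence for binding of the Sf9 membrane reagent. Each polyreactivity label is drawn from the gate of origin.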

Row | Sequence | polyreactivity (PSR sort gate)
1 | QVQLVESGGGLVQAGGSLPLSCAASGSNLRRYDMGLYRQAPGKERELVAAISSSGGSTYYADSVKGRFTISRDNAKNTVYLQMNSLKPEDTAVYYCAADIYDDDRSEYTEYDYWGQGTHVTVSS | low polyreactivity
2 | QVQLVESGGGLVQAGGSLPLSCAASGSTFDRNVMGWYRQAPGKERELVAAISRVSSTNYADSVKGRFTISRDNAKNTVNLQMNSLKPEDTAVYSCAADGAGSIMNYWGQGTQVTVSS | low polyreactivity
3 | QVQLVESGGGLVQAGGSLPLSCAASGSTFLQYAMGWYRQAPGKERELVAAIRGRGDSTYYADSVNGRFTISRDNEMNTVYLQMNSLKPVDSAVYSCAARGQGSRGMYYWGQGTKVTVSS | low polyreactivity
4 | QVQLVESGGGLVQAGGSLPLSSAASGRTFYPNAMGWYRQAPGNEREFVARISDSGGSTYYADSVKGRFTISRDNAKNTVYLQMNSLKPEDTAVYYCAADYGDPRVKEYDYWGQGTQVTVSS | low polyreactivity
5 | QVQLVESGGGLVQAGGSLRESCAASGRIFYGNAMGCYRQAPVKERELVAAISSGTSTNYADSVKGRFTISRDNAKNTVYLEMNSLKPEDTGVYYCAAGSYSRYLYSLYFDFDYWGQGTQVTVSS | low polyreactivity
6 | QVQLVESGGGLVQAGGSLRFICAASGRIFRRYLMGWYRQAPGKERELVARFRIRDSNTYYADSVKGRFTISRDNAKNTVYLQMNSLKPEDTAVYNCAVVANYVYSKYDYWGQGTQVTVSS | high polyreactivity
7 | QVQLVESGGGLVQAGGSLRFRCAASGRIFSYVMGWYRQAPGKERELVAAISTGGGNTYYADSVKGRFTISRDNAKNTVYLQMNSLKPEDTAVYYCAADYYAGTFDYWGQGTQVTVSS | high polyreactivity
8 | QVQLVESGGGLVQAGGSLRFSCAASGFIFGDYAMGWDRQAPGTEREFVATISRSVGSRSYADSVKGRFTISRDNAKKPVYLQMNSLKPEDTAVYYCAAVTWGEGFDYWGQGTQVTVSA | low polyreactivity
9 | QVQLVESGGGLVQAGGSLRFSCAASGFIFRYYAMGWYRQAPGKERELVAAIDYSGGSTIYADSVKGRFTISRDNAKNTVYLQMNSLKPEDTAVYYCNAEYTWHRGYDYWGQGTQVTVSS | low polyreactivity
10 | QVQLVESGGGLVQAGGSLRFSCAASGFIFVRYAMGWYRQAPGKERELVAAISGSGGRTYYADSVKGRFTISRDNAKNTVYLQMTSLKPEDTAVYYCNGTSYTYGYLPYDYWGQGTQVTVSS | high polyreactivity
11 | QVQLVESGGGLVQAGGSLRFSCAASGGFFHGNTMGWYRQAPGKERELVAAISNSGGSTYYADSVKGRFPISRDNAKNTVYLQMNSLKPEDTAVDSCARVGYKLYQYKYDYWGQGTQVTVSS | low polyreactivity
12 | QVQLVESGGGLVQAGGSLRFSCAASGGNFGYYAMGWYRQAPGKERELVARISSSGGSTYYADSVKGRFTISRDNAKNTVYLQMNSLKPEDTAVYYCNTASNRYPGWRAEFDYWGQGTQVTVSS | low polyreactivity
13 | QVQLVESGGGLVQAGGSLRFSCAASGGTFYVYAMGGYRQATGKERELVAAISTSGGSTYYADSVKGRFTISRDNAKNTVYLQMNSLKPEDTAVYYCAARRVSFSGHPRYGYWGQGTQVTVSS | high polyreactivity
14 | QVQLVESGGGLVQAGGSLRFSCAASGITFKGYAMGWYRQAPGKERELVAAINSRGGTYADSVKGRFTISRDNAKNTVYLQMNSLKPEDTAVYYCAVTAVRPLPLDSGYDYWGQGTQVTVSS | low polyreactivity
15 | QVQLVESGGGLVQAGGSLRFSCAASGLIFRGYTMGWYRQAPGKEREFVAAITRRGTSTYYADSVKGRFTISRDNAKNTVYLQINRLKPEDTAVYYCAARSVSGPRGYPYDYWGQGTQVTVSS | high polyreactivity
16 | QVQLVESGGGLVQAGGSLRFSCAASGPIFYNNAMGGYRQAPGKERELHAAISYSGGRTYYADSVKGRFTISRDNAKNTVYLQMNSLKPEDTAVYYCATRYARTAYIRSEYWGQGTQVTVSS | high polyreactivity
17 | QVQLVESGGGLVQAGGSLRFSCAASGRICVIYAIGWYRQAPGKERELVAVINDDGSTNYADSVKGRFTISRDNAKNTVYLQMNSLKPEDTAVYYCATDYVRHAGWRRYDYWGQGTQVTVSS | low polyreactivity
18 | QVQLVESGGGLVQAGGSLRFSCAASGRIFTAYTMGWYRQAPGKERELVAAITRAGRTYYADSVKGRFTISRDNAKNTVYLQMNSLKPEDTAVYYCNTAPNYKYGYWGQGTQVTVSS | high polyreactivity
19 | QVQLVESGGGLVQAGGSLRFSCAASGRILFSYGAMGLYRQAPGRERELDAATSYSGGSTYYADSVKGRFTISRDKAKKTVYLQMNSLKPEETAVYYCDPSSIVYRHYYWGQGTQVTLSS | high polyreactivity
20 | QVQLVESGGGLVQAGGSLRFSCAASGRTFTVYAMGWYRQAPGKERELVAAINYSVGSTYYADSVKGRFTISRDNAKNTVYLQMNSLKPEDTAVYYCAADLYHFSYSYSYIRYDYWGQGTQVTVSS | low polyreactivity
21 | QVQLVESGGGLVQAGGSLRFSCAASGRTFVWYTMGWYRQAPGKERELVAAISSGGSTSYADSVKGRFTISRDNAKNTVYLQMNSLKPEDTAVYYCNAVWYVRYSGMDYWGQGTQVTVSS | high polyreactivity
22 | QVQLVESGGGLVQAGGSLRFSCAASGRTFYFYAMGWYRQAPGKERELVAAIRSSGGSTNYADSVKGRFTISRDNAKNTVYLQMNSLKPEDTAVYYCAAKRRAKGNYAFYYWGQGTQVTVSS | high polyreactivity

Row | Sequence | polyreactivity (PSR sort gate)
23 | QVQLVESGGGLVQAGGSLRFSCAASGRTLGYYTMGWYRQAPGKESELVATITPGGSTNYADSVKGRFTISRDHAKNTVYLQMNRLKPEDTAVYYCAKKKRRGYGYDYWGQGTQVTVSS | high polyreactivity
24 | QVQLVESGGGLVQAGGSLRFSCAASGSIFQHYAMGWYRQAPGKERELVAAISWSGGSTYYADSVKGRFSISRDNAKNTVYLQMNSLKPEDTAVYYCAATKRRFVKFDYWGQGTQVTVSS | low polyreactivity
25 | QVQLVESGGGLVQAGGSLRFSCAASGSIFRVNAMGWYRQAPGKERELVAAITDGGITNYADSVKGRFTISRDNAKNTVYLQMNSLKPEDTAVYYCAADTDRDFHYVVPTYDYWGQGTQVTVSS | low polyreactivity
26 | QVQLVESGGGLVQAGGSLRFSCAASGSIFSLNTMGWYRQAHGKERELVAAITRGGSTYYADSVKGRFTISRDNAKNTVYLQMNSLKPEDTAVYYCAAVPGGNISAPYDYWGQGTQVTVSS | high polyreactivity
27 | QVQLVESGGGLVQAGGSLRFSCAASGSIIFDGNAMAWSRQAPGKEREMVADITTSDGRTYYADSVKGRFTISRDSAKNTVYFQMNSLKPEDTAVYDCAKPNGYHGGRYDYWGQGSQVTVSS | low polyreactivity
28 | QVQLVESGGGLVQAGGSLRFSCAASGSTFLSNAIGWYRLAPGKERELVAAISIGGGRTYYADSVKGRFTISRDNAKNTVYLQMNSLKPEYTAVYYCNAVGRHTDAYHYDYWGQGTQVTVSS | high polyreactivity
29 | QVQLVESGGGLVQAGGSLRFSCAASGSTFRDYAMGWYRQAPGKERELVAAISSRGATTYYADSVKGRFTISRDNAKNTVYLQMNSLKPEDTAVYYCNARQRRNPGGYGYWGQGTQVTVSS | high polyreactivity
30 | QVQLVESGGGLVQAGGSLRFSCAASGSTFSYYTMGWYRQAPGKERELVATISRRGASTYYADSVKGRFTISRDNAKNTVYLQMNSLKPEDTAVYYCAKSYYYGRSATRPEYDYWGQGTQVTVSS | high polyreactivity
31 | QVQLVESGGGLVQAGGSLRFSCAASGSTFYGYVMGWYRQAPGKERELVAAISSSGGRTYYADSVKGRFTIARDYAKNTVYLQMNSLKPEDTAVYYCNTVQRYSTHYDYWGQGTQVTVSS | high polyreactivity
32 | QVQLVESGGGLVQAGGSLRFSCAASGTFVPYAMGWYRQAPGKEMELVARITWRGGSTYYADSVKGRFTISRDNAKNTVYLQMNSLKPEDTAVYYCATVSDNRYYYWGQGSQVTVSS | low polyreactivity
33 | QVQLVESGGGLVQAGGSLRFSCADSGSTFGTYAMGWYRQAPGKERELVAAISWSGGSTYYADSVKGRFTISRDNAKNTVYLQMNSLKPEDTAVYWGQGTQVTVSS | low polyreactivity
34 | QVQLVESGGGLVQAGGSLRFSCGGWGSISEVYAMGWYRPAPGKERELVAAITSGASTNYADSVNGRFTISRDNAKNTVYLQMNSLKPEDTAVYYCAADSDSQWGMDYWGQGTQVTVSS | low polyreactivity
35 | QVQLVESGGGLVQAGGSLRIICAASGRTFATYAMGWYRQAPGKERELVAVISRSGGRTYYADSVKGRFTISRDNAKNTVYLQMNSLKPEDTAVYYCAASYGPSTWTSSYYYWGQGTQVTVSS | high polyreactivity
36 | QVQLVESGGGLVQAGGSLRIICAASGSIFPYYAKGWYRQAPGKERELVARITITGGITYYADSVKGRFSISRDNAKNTVYLQMHSLKPEDTAVYYCAADRDWQYSFRHSVYVYDYDFWGQGTQVTVSS | low polyreactivity
37 | QVQLVESGGGLVQAGGSLRISCAASARIFQVYGMGWYRQAPGKERELVASITYRGGSTYYADSVKGRFTISRDNAKNNVDLQMNSLKPEDTAVYYCAADGAFYASTEMDYWGQGTQVTVSS | low polyreactivity
38 | QVQLVESGGGLVQAGGSLRISCAASGFIFGWYAMGWYRQAPGKERELVAVIRSGGRTNYADSVKGRFTISRDNAKNTVYLQMNSLKPEDTAVYYCNAVGGRGYGGGYWGQGTQVTVSS | high polyreactivity
39 | QVQLVESGGGLVQAGGSLRISCAASGFIFHVYAMGWYRQAPGKERELVAAISSGGSTYYADSVKGRFTISRDNAKNTVYLQMNSLKPEDTAVYYCNVARSRYRYRYDYWGQGTQVTVSS | high polyreactivity
40 | QVQLVESGGGLVQAGGSLRISCAASGFIFKKNAMGWYRQAPGKERELVAAITSSGGSTYYADSVKGRFTISRDNAKNTVYFQMNSLKPEDSAVYYCARDKEQQGYRLFGYWGQGTQVTVSS | high polyreactivity
41 | QVQLVESGGGLVQAGGSLRISCAASGFIFPYNSMGWYREAPGKERELVARISSGGSTNYADSVKGRFTISRDNAKNTVYLQMHSLKPEDTAVYYCNARYRWGWTYLRYGSYDYWGQGTQVTVSS | high polyreactivity
42 | QVQLVESGGGLVQAGGSLRISCAASGFIFQYNTMGWYRQAPGKERELVAVITRTGSTNYADSVKGRFTISRDNAKNTVYLQMNSLKPEDTAVYFCATSFYSRPRKARYYYWGQGTQVTVSS | high polyreactivity
43 | QVQLVESGGGLVQAGGSLRISCAASGFIFSRNAMGWYRQAPGKERELVAAISAGGGSTYYADSVKGRFTISRDNAKNTVYLQMNSLKPEDSAVYSCAAYFRSQFGYWGQGTQVTVSS | high polyreactivity
